Key:
[1] = molecular target: GFP polybody (His-tagged GFP nanobody-TMS reconstituted in peptidisc); assay: BLI
[2] = molecular target: His-tagged GFP nanobody; assay: BLI

Kd [1]: 2.72 nM
Kd [2]: 0.75 nM
Substance: His-tagged GFP (green fluorescent protein) (from UniProt P42212 1-238) (natural protein)
